Experimental data reported in patent US20230357364A1 (INTERNATIONAL AIDS VACCINE INITIATIVE, published 2023).
Where two headings read alike, the source gives them in different places.

Assays:
SARS-CoV-1 RBD (RBD-1) = SARS-CoV-1 RBD (RBD-1) (SARS-CoV-1); experiment: ELISA
SARS-CoV-2 RBD (RBD-2) [1] = molecular target: SARS-CoV-2 RBD (RBD-2) (SARS-CoV-2); experiment: ELISA
[2] = molecular target: T1, SARS-CoV-2 spike on pseudovirus or live virus (USA-WA1/2020, WT) (SARS-CoV-2, UniProt P0DTC2 14-1273); experiment: cell-based or functional assay
[3] = molecular target: T2, SARS-CoV-1 spike on pseudovirus (SARS-CoV-1, UniProt P59594 14-1255); experiment: cell-based or functional assay
[4] = molecular target: T1, SARS-CoV-2 spike on pseudovirus or live …; experiment: cell-based or functional assay; remark: listed apart in the source
[5] = molecular target: T2, SARS-CoV-1 spike on pseudovirus; experiment: cell-based or functional assay; remark: listed apart in the source
SARS-CoV-2 RBD (RBD-2) [6] = molecular target: SARS-CoV-2 RBD (RBD-2) (SARS-CoV-2); experiment: flow, HeLa-ACE2, mAb:RBD=4:1
SARS-CoV-2 RBD (RBD-2) [7] = molecular target: SARS-CoV-2 RBD (RBD-2) (SARS-CoV-2); experiment: SPR, Fc-captured IgG
SARS-CoV-2 RBD (RBD-2) [8] = molecular target: SARS-CoV-2 RBD (RBD-2) (SARS-CoV-2); experiment: flow, HeLa-ACE2, mAb:RBD=2:1
[9] = molecular target: T3, SARS-CoV-2 RBD (residue 332-527) (SARS-CoV-2, UniProt P0DTC2 332-527); experiment: ELISA on truncated S constructs
T3 construct: range 332-527

[10] = molecular target: T1, SARS-CoV-2 spike on pseudovirus or live …; experiment: cell-based or functional assay; remark: listed apart in the source
[11] = molecular target: T1, SARS-CoV-2 spike on pseudovirus or live …; experiment: cell-based or functional assay; remark: listed apart in the source
[12] = molecular target: T2, SARS-CoV-1 spike on pseudovirus; experiment: cell-based or functional assay; remark: listed apart in the source
[13] = molecular target: T1, SARS-CoV-2 spike on pseudovirus or live …; experiment: cell-based or functional assay; remark: listed apart in the source
human insulin = human insulin (human, UniProt P01308 25-54; P01308 90-110); experiment: polyreactivity ELISA
Chain of human insulin (P01308 25-54 limits assumed, chain 1 of 2): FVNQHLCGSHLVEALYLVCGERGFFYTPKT
Chain of human insulin (P01308 90-110 limits assumed, chain 2 of 2): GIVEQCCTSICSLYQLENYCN

B1: L12.cP08D07 (antibody, V domains shown)
VH: QVQLQESGPGLVKPSETLSLTCTVSGGSISSSSYYWGWIRQPPGKGLEWIGSIYYSGSTYYNPSLKSRVTISVDTSKNQFSLKLSSVTAADTAVYYCARQGDCSTTSCAYDYWGQGTLVTVSS
VL: SYELTQPPSVSVSPGQTARITCSGDALPKQYAYWYQQKPGQAPVLVIYKDSERPSGIPERFSGSSSGTTATLTISGVQAEDEADYYCQSADSSGTYLVVFGGGTKLAVL
notes: human IgG1
EC50 (SARS-CoV-1 RBD (RBD-1)): > 50 µg/mL
EC50 (SARS-CoV-2 RBD (RBD-2) [1]): > 50 µg/mL
Maximum Plateau of Neutralization [2]: 64%
PSV neutralization IC50 [2]: 21.9 µg/mL
PSV neutralization IC50 [3]: > 50 µg/mL
PSV neutralization IC50 [4]: 1.81 µg/mL
PSV neutralization IC50 [5]: > 50 µg/mL
% inhibition of RBD binding to hACE2 (SARS-CoV-2 RBD (RBD-2) [6]): -3.9%
MFI (RBD binding to cell surface) (SARS-CoV-2 RBD (RBD-2) [6]): 11600
Kd (SARS-CoV-2 RBD (RBD-2) [7]): 26.8 nM
koff (SARS-CoV-2 RBD (RBD-2) [7]): 0.017 s⁻¹
kon (SARS-CoV-2 RBD (RBD-2) [7]): 636000 M⁻¹ s⁻¹
% inhibition of RBD binding to hACE2 (SARS-CoV-2 RBD (RBD-2) [8]): 3%
MFI (RBD binding to cell surface) (SARS-CoV-2 RBD (RBD-2) [8]): 10800
binding result [9]: no binding

B2: L6.dP04E05 (antibody, V domains shown)
VH: EVQLVESGGGLVQPGRSLRLSCAASGFTFDDYAMHWVRQAPGKGLEWVSGISWNSDNIGYADSVKGRFTVSRDNAKNSLYLQMNSLRAEDTALYYCTKDIHRKNDYYDILTGYYRVRYYYYAMDVWGQGTTVTVSS
VL: QSVLTQPPSASGSPGQSVTISCTGTSSDAGGYNYVSWYQQHPGKAPKLMIYEVIKRPSGVPDRFSGSKSGNTASLTVSGLQAEDEADYYCSSFAGTSVVFGGGTKLTVL
notes: human IgG1
EC50 (SARS-CoV-1 RBD (RBD-1)): > 10 µg/mL
EC50 (SARS-CoV-2 RBD (RBD-2) [1]): 0.018 µg/mL
fold more potent than L12.bP11A6 [10]: ~50 fold
PSV in HeLa-ACE2 cells IC50 [11]: 0.006 µg/mL
live virus IC50 (HeLa-ACE2) [11]: 0.003 µg/mL
live virus IC50 (Vero) [11]: 0.006 µg/mL
PSV in HeLa-ACE2 cells IC50 [12]: > 25 µg/mL
neutralization IC50 [13]: 0.00036 µg/mL

B3: L6.P4A3.10 (antibody, V domains shown)
VH: QVQLVQSGAEVKKPGSSVKVSCKAPGGTFSSSAISWVRQAPGQGLEWMGGIIPILDITHYAQKFQGRVTITADKSTSTAFMELSSLRSEDTAVYYCALRNQWDLLVYWGQGTLVTVSS
VL: EIVLTQSPGTLSLSPGERATLSCRASQSVSSSYLAWYQQKPGQAPRLLIYGAESRATGIPDRFSGSGSGTDFTLTISRLEPEDFAVYYCQHYGSSVWTFGQGTKLEIK
binding result (human insulin): no binding
